Data taken from PMC4939424, “Phosphatidylinositol 3-Kinase-Associated Protein (PI3KAP)/XB130 Crosslinks Actin Filaments through Its Actin Binding and Multimerization Properties In Vitro and Enhances Endocytosis in HEK293 Cells” (Frontiers in Endocrinology, 2016).

Target: the molecule itself
Experiment: native gel or EMSA; blue native (BN)-PAGE of immuno-purified FLAG-PI3KAP/XB130 on NativePAGE Novex Bis-Tris gels, immunoblot with anti-FLAG antibody

B1: FLAG-tagged recombinant full-length PI3KAP/XB130 (natural protein, mouse, UniProt Q5DTU0-2 1-843, looked up)
chain: MERYKAQGCCCLVVQRRILQVSASLEQLLTELDDFLKVLDQENLSSAAVLKKSGLSELLRLYTKSSSSDEEYIYMNKVSVNGEQNSASPDKVPEEQGPLTNGEPSQHSSAPQKSLPDLPPPKMIPERKQPTVPKIESPEGYYEEAEPFDRSINEDGEAVSSSYESYDEDENSKGKAAPYQWPSPEASIELMRDARICAFLWRKKWLGQWAKQLCVIRDTRLLCYKSSKDHSPQLDVNLRGSSVVHKEKQVRKKGHKLKITPMNADVIVLGLQSKDQAEQWLRVIQEVSGLPSEGASEGNQYTPDAQRLNCQKPDIAEKYLSAAEYGITINGHPEIPETKDVKKKCSAGLKLSNLMNLGRKKSTSLEPPERSLETSSYLNVLVNSQWKSRWCFVRDSHLHFYQDRNRSKVAQQPLSLVGCDVLPDPSPDHLYSFRILHNGEELAKLEAKSSEEMGHWLGLLLSESGSKTDPEELTYDYVDAERVSCIVSAAKTSLLLMQRKFSEPNTYIDGLPSRDCQDDLYDDVEVSELIAVVEPAEEAAPAVDANSGSEPDRVYLDLTPVKSFLHSSSEAQAQASLPAVPHQDDVAETLTVDPKPGTTPEEPHTESPGDPEVQQRQPEVQESSEPIEPTPRITMVKLQAEQQRISFPANCPDTMASAPIAASPPVKEKLRVTSAEIKLGKNRTEAEVKRYTEEKERLERSKEEIRGHLAQLRREKRELKETLLRCTDKGVLAKLEQTLKKIDEECRMEESRRVDLELSIMEVKDNLKKAEAGPVTLGTTVDTTHLDNMSPRPQPKAATPNPPPDSTPVNSASVLKNRPLSVMVTGKGTVLQKAKEWEKKGAS
notes: also called FLAG-PI3KAP/XB130; FLAG-PI3KAPXB130; source: HEK293T, transfected (pShuttle2): purified with anti-FLAG M2 agarose and eluted with FLAG peptide; also in lysate (co-immunoprecipitation)
Does B1 bind?
Result: binds
